Results reported in patent US20220056111A1 (YUROGEN BIOSYSTEMS, published 2022).

T1: HcoV-NL63 S protein (HcoV-NL63, UniProt Q6Q1S2 19-1296)
T1 construct: also called hCov-NL63 S1
T1 sequence: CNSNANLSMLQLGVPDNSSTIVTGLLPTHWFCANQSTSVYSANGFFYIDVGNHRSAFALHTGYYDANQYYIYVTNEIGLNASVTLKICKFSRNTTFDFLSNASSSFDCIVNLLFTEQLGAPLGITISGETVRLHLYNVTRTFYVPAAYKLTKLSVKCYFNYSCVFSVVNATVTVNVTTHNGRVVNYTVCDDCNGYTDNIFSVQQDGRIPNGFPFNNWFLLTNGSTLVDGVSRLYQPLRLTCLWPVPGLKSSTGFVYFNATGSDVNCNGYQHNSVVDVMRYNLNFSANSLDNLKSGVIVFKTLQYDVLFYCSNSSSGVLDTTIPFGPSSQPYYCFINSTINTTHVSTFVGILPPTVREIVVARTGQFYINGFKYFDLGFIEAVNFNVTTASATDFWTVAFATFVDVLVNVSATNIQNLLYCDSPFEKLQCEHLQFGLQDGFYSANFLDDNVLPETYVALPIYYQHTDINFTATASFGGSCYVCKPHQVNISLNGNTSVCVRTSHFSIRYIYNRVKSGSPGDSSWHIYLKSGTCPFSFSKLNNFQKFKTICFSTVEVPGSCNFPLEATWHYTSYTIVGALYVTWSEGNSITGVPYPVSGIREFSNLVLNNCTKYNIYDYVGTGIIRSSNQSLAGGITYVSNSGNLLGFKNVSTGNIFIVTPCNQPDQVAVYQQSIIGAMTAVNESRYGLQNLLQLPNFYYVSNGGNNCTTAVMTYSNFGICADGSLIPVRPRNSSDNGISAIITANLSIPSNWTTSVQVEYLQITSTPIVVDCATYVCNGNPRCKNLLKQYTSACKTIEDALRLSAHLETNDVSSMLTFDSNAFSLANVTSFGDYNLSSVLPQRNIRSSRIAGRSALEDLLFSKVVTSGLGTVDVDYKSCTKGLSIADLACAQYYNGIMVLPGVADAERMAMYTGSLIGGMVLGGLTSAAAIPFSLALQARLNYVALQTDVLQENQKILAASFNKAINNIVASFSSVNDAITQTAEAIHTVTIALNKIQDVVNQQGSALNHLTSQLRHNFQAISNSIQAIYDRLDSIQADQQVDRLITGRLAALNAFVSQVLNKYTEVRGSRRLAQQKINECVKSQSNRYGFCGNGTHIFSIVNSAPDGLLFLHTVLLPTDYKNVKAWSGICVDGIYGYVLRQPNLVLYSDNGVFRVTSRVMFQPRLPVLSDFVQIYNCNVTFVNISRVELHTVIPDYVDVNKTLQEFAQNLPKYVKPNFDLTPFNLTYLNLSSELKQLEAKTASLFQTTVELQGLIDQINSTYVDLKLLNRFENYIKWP

T2: HKU1 S1 and S2 protein (HKU1, UniProt Q5MQD0 13-1300)
T2 construct: domain: S1 and S2
T2 sequence: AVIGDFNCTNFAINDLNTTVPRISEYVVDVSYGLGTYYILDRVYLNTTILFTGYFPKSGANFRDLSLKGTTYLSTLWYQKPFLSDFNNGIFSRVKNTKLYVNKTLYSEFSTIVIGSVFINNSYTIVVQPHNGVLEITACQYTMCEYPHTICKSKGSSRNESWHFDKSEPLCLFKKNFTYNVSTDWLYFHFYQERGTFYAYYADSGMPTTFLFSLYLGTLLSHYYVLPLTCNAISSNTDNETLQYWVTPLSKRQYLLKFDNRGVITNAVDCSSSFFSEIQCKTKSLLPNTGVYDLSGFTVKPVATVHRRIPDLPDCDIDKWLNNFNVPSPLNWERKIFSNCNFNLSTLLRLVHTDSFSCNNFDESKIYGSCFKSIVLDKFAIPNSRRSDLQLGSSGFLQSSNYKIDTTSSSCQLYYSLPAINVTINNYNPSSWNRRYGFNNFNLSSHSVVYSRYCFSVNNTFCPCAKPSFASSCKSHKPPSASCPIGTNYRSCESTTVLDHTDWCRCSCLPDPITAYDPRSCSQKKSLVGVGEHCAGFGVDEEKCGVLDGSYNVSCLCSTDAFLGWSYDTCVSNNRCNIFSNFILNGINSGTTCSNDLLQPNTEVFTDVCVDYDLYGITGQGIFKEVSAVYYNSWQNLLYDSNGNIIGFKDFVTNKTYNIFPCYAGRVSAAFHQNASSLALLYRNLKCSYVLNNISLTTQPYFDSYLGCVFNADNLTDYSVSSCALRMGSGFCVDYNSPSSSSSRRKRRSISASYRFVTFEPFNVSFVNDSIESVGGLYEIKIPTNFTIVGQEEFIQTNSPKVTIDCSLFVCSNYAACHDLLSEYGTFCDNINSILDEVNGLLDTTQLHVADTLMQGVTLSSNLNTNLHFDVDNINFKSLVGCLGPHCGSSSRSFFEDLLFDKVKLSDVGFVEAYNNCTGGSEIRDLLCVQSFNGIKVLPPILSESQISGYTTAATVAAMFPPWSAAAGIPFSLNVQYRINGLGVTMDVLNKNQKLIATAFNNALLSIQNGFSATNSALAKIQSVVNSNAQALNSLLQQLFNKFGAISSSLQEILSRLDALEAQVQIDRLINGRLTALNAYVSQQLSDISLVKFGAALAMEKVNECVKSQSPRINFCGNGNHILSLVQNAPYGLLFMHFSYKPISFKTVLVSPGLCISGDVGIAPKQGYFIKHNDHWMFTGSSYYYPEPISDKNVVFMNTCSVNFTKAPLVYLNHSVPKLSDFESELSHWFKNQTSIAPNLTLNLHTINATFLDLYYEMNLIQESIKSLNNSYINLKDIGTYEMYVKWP


How the values were obtained:
[1] = target: T1, HcoV-NL63 S protein; test: direct ELISA, OD450
[2] = target: T2, HKU1 S1 and S2 protein; test: direct ELISA, OD450
[3] = target: T3, SARS S1 and S2 protein (SARS, UniProt P59594 14-1195); test: direct ELISA, OD450
T3 construct: domain: S1 and S2

[4] = target: SARS-CoV-2 Spike S1 protein (SARS-CoV-2, UniProt P0DTC2 16-685)

Binder | binding result [1] | binding result [2] | binding result [3] | Kd [4] | koff [4] | kon [4]
rabbit monoclonal antibody 9A5 against the SARS-CoV-2 S1 (antibody, V domains shown) VH: QSVEESGGRLVTPGTPLTLTCTVSGFSLSAYQMIWVRQTPGKGLEYIGIMHTGTSAYYANWAKGRFTISKTSSTTVDLKMTSPTTEDTATYFCGRNLNEGFTGAYPFNLWGPGTLVAVSS VL: DVVMTQTPASVEAAVGGTVTIKCQASQSIGSNLAWYQKKPGQPPKLLIYQASNLASGVPSRFKGSGSGTQFTLTISDLECADAATYYCQMNYYISSSYTYTFGGGTEVVVKG | no binding | no binding | no binding | 0.87 nM | 0.000115 s⁻¹ | 132000 M⁻¹ s⁻¹
rabbit monoclonal antibody 1D2 against the SARS-CoV-2 S1 (antibody, V domains shown) VH: QSVEESGGRLVTPGTSLTLTCTVSGIDIETYWMSWVRQAPGKGLEWIAIITSHDHSGYANWAEGRFTISKTSTTVTLTITDLQPSDTGTYFCAKDVGHSTYDLWGPGTLVTVSS VL: AAVLTQTPSPVSAAVGGTVTISCQSSESVLSNNRLSWYQQKPGQPPKLLIYAASTLASGVPSRFKGRGSGTQFTLTISDVQCDDAAMYVCAGAFSGSSDTRAFGGGTEVVVKG | no binding | – | – | 3.55 nM | 0.000259 s⁻¹ | 72900 M⁻¹ s⁻¹
rabbit monoclonal antibody 1H1 against the SARS-CoV-2 S1 (antibody, V domains shown) VH: QSLEESGGDLVKPGASLTLTCTASGFSFSSGYDMCWVRQAPGKGLEWIACIGTGSSGNIYYASWAKGRFTISKTSSTTVTLQMTSLTAADTATYFCARDDADYAGPDYFNLWGPGTLVTVSS VL: DIVMTQTPASVSEPVGGTVTIKCQASESISNWLAWYQQKPGQPPKLLIYAAFTLASGVPSRFKGSGSGTQFTLTINGVECADAATYYCQQTYSSRDVDNVFGGGTEVVVKG | no binding | no binding | no binding | 2.06 nM | 0.000273 s⁻¹ | 133000 M⁻¹ s⁻¹
rabbit monoclonal antibody 1A3 against the SARS-CoV-2 S1 (antibody, V domains shown) VH: QSLEESGGRLVTPGTPLTLTCTVSGFSFSSYHMGWVRQAPGEGLEWIGTLIGIAGNTYYASWAKGRFSISKTSTTVDLKMTSPTTEDTATYWCARIVTATFEFWGPGTLVTVSS VL: AQVLTQTPSPVSAAVGGTVTISCQASQSVNMNLLSWFQQKPGQPPKLLIYQASNLASGVSARFKGSGSGTQFTLTINEIQCDDAATYYCQGDMGGWMFPFGGGTEVVVTG | no binding | no binding | no binding | 0.537 nM | 9.34e-05 s⁻¹ | 174000 M⁻¹ s⁻¹
rabbit monoclonal antibody 7G5 against the SARS-CoV-2 S1 (antibody, V domains shown) VH: QEQLEESGGDLVKPGASLTLTCTASGFSFSSAYYMCWVRQAPGKGLEWIACIGVDSGGNSYYASWAKGRFTISTTSSTTVTLQMTSLTAADKATYFCTRSFSLWGPGTLVTISS VL: RKWLTQTASSVSAAVGGTVTISCQASQSVYNNDNLAWFQQRPGQPPKLLIYLASNLASGVPPRFSGSGSGTQFTLTISDVQCDDAATYYCLGGYDCSNADCHAFGGGTEVVVKG | no binding | no binding | no binding | 2.14 nM | 0.000261 s⁻¹ | 122000 M⁻¹ s⁻¹
